According to the DeepSol protein solubility set:

Assay: soluble on expression in E. coli; label from the status in PepcDB or PDB records

Sequence	soluble on expression in E. coli
MASYTLRQLKYFVTTVECGSVAEASRKLYIAQPSISTAVKGLEESFGVQLFIRHHAQGVSLTPAGARFYRKAQELLRMAHEFEQNALADNDVIAGQIDIGCFETVAPLYLPGLIAGFRQAYPGVEIRIRDGEQQELVQGLTSGRFDLAFLYEHDLDSTIETEPLMPPQRPHALLPEGHRFAGQAQVSLRDLCLEPMILLDVQPSRTYFVSLFEELGLTPNIAFSSPSIEMVRGMVGQGFGFSLLVTRPHSECTYDGKKVVMVDLAEPVSTSGLAAAWLKRAQLTKPARLFVDYCREQLGKLAERRH	soluble
MGLLALGTPLQWFESRTYNEHIRDEGIEQLLYIFQAAGKRDNDPLFWGDELEYMVVDFDDKERNSMLDVCHDKILTELNMEDSSLCEANDVSFHPEYGRYMLEATPASPYLNYVGSYVEVNMQKRRAIAEYKLSEYARQDSKNNLHVGSRSVPLTLTVFPRMGCPDFINIKDPWNHKNAASRSLFLPDEVINRHVRFPNLTASIRTRRGEKVCMNVPMYKDIATPETDDSIYDRDWFLPEDKEAKLASKPGFIYMDSMGFGMGCSCLQVTFQAPNINKARYLYDALVNFAPIMLAFSAAAPAFKGWLADQDVRWNVISGAVDDRTPKERGVAPLLPKYNKNGFGGIAKDVQDKVLEIPKSRYSSVDLFLGGSKFFNRTYNDTNVPINEKVLGRLLENDKAPLDYDLAKHFAHLYIRDPVSTFEELLNQDNKTSSNHFENIQSTNWQTLRFKPPTQQATPDKKDSPGWRVEFRPFEVQLLDFENAAYSVLIYLIVDSILTFSDNINAYIHMSKVWENMKIAHHRDAILFEKFHWKKSFRNDTDVETEDYSISEIFHNPENGIFPQFVTPILCQKGFVTKDWKELKHSSKHERLYYYLKLISDRASGELPTTAKFFRNFVLQHPDYKHDSKISKSINYDLLSTCDRLTHLDDSKGELTSFLGAEIAEYVKKNKPSIESKCDKLAAALGHHHHHH	soluble
MNLVHTPNANRLHIALFGKRNSGKSSLINALTGQDTALVSDTPGTTTDSVQKAMEIHGIGPCLFIDTPGFDDEGELGNRRIERTWKAVEKTDIALLLCAGGGSAEETGEPDFTEELHWLEQLKAKNIPTILLINKADIRKNTASLAIRIKETFGSQPIPVSAKEKTGVELIRQAILEKLPEDFDQQSITGSLVTEGDLVLLVMPQDIQAPKGRLILPQVQTMRELLDKKCLIMSCTTDKLQETLQALSRPPKLIITDSQVFKTVYEQKPEESRLTSFSVLFAGYKGDIRYYVKSASAIGSLTESSRVLIAEACTHAPLSEDIGRVKLPHLLRKRIGEKLSIDIVAGTDFPQDLTPYSLVIHCGACMFNRKYVLSRIERARLQNVPMTNYGVAIAFLNGILNQIEYLEHHHHHH	not soluble
MIIRPERQGDEEAIARVTEDAFRNVEHRSGTEQLIVARLRDAGALTVSLVAEDSEGIIGHVGFSPVTLSSGETGWFCLAPLSVTPERQGEGVGSRLARDGLAVLERLSAAGCVVVGDPAYYGRFGFRPVAGLSAEGIPDEYFTVLRLHGGTPSGIVGFHPGFDGDNA	not soluble
MGSDKIHHHHHHNEDNLKIKTIKGDSNELDHININFGYALNGYINSYYTINGSNKTKKTELIKLQKDSKNTNNLIDVSSGSDLIAHVGFEMNEESKDINFVIDEKKEDLEKGVFPSEGSDKEIEYEKLDMNNFTRTRYKVDKSTDDYYAKILASKRYKKYLYVSVLYATSDSSENNKEYSSTIDIIKINPENKKIKTIKSINLSNYFSEKYQNIENIGVSYASKYEDKMYILVNVLNTNIGDNSNSKFHLLEYNLEENKESIMELKTDSKMALAKAKLEANKLYMVMSNDYDNSSITELNLLTYNILDKSLDEDKYVLDNREKRGIRSIEIDSNKIVAYTSRLNSILSWDDKFMLYIINKNSKEIVYEGELQFNSSNSMLEFEIK	not soluble
MNSLSLPHRYPFLFIDGVTDSEPGKHAAAYKLISENDWFITDTQTEMPFSLVIEGLRKPRLLQELQMRTAWDYCLRKRKSWEKLCLVTGLILRLKSRAIGAGLCSDMPRHQLESSLLLKLKSASILKNEKNPSQHFVRGSILCRNPVRFESYLFAGVCVFHHSYFPSALHLEHHHHHH	not soluble
MKYFAYGSNMSLLRLKERVPSSKKLGIVTLKKHQLRFNMSGDDDSGKCDSFETNNHEDIVIGALFEIDENEKDALDRAESLGDGYDEKFVFVQSNSGEVFEALTYYAIKIDASLQPYSWYLNHVIIGAKETKLPTDYLAIIESVECIEDPDTSRDAKQRAMYVLEHHHHHH	not soluble
MGSSHHHHHHSSGLVPRGSHMEEDGGIIRRIQTRGEGYAKPNEGAIVEVALEGYYKDKLFDQRELRFEIGEGENLDLPYGLERAIQRMEKGEHSIVYLKPSYAFGSVGKEKFQIPPNAELKYELHLKSFEKAKESWEMNSEEKLEQSTIVKERGTVYFKEGKYKQALLQYKKIVSWLEYESSFSNEEAQKAQALRLASHLNLAMCHLKLQAFSAAIESCNKALELDSNNEKGLSRRGEAHLAVNDFELARADFQKVLQLYPNNKAAKTQLAVCQQRIRRQLAREKKLYANMFERLAEEENKAKAEASSGDHPTDTEMKEEQKSNTAGSQSQVETEA	soluble
MSTNITFHASALTRSERTELRNQRGLTIWLTGLSASGKSTLAVELEHQLVRDRRVHAYRLDGDNIRFGLNKDLGFSEADRNENIRRIAEVAKLFADSNSIAITSFISPYRKDRDTARQLHEVATPGEETGLPFVEVYVDVPVEVAEQRDPKGLYKKAREGVIKEFTGISAPYEAPANPEVHVKNYELPVQDAVKQIIDYLDTKGYLPAKKE	soluble
MKLPGPDHPISITANPNGVRISADGKVIAETRRALTLQEASYPPVQYIPREDADMRLLEKTARVTHCPYKGDASYFSIVAGGEPQANAVWSYENPFPAMAEIAGYLAFYPQKVQTEEFKP	not soluble
MGSDKIHHHHHHMNEQIIEDLSSPWSGNTVHLVTVDGSQLIKKQYRKKEGYLREVHALRTVPQAICPSLVDAYEQLTYEPLQKNIQAADLDEIIGSLLRELHQHTVQKPSVFDPGNGVTKETWLDYLESFAPNWLQTIGTEKYESMYWSAINSVRAAYDRNQRALCLIHRDARLANVGEGSDGRFLFLDFELAIIGDPLWDVARYLIQSVHSETTFLKAYEFDHTEIEVLQAYKKLYAMSFMNYLIKNKQADTLDFKKCVNVLTN	not soluble
GPLGSSWLFLEVIAGPAIGLQHAVNSTSSSKLPVKLGRVSPSDLALKDSEVSGKHAQITWNSTKFKWELVDMGSLNGTLVNSHSISHPDLGSRKWGNPVELASDDIITLGTTTKVYVRISSQNEFQIPFKIGVASDPMA	soluble
MVVFDLSWTLVQADSFELLCQAAAVDADAVAEVRRCHSLGSDDDLRACAALLRGRSSTGLAERLHALIEYTDGAASVCRVLKKLGYRTTVLSPGRSFLRELVKADLGIDFVAANRHEMDSNEHFTGAILELLVNGERKAELLTMLAMREQLSPQQIIAVGDGPVSAKMLDSAGPSIAFGAPAARDGTNIGGKIQSKSLTCIWFLMGIHERDLRSFS	soluble
MDQFSEPEETQVEQVENPDRNEAGYEVCNQSGENLSVAIAYFDTSIDSYRSEGWWNLDQSKCQFFPNLLDSVDEVYVFAESDQTLWSGDFPFCMQEDAFEYPDANRDRCPSPAYSKGFLKVEVGDAKTWTTLEHHHHHH	soluble
MGSDKIHHHHHHMTIVYLYTALCTVGGADRSIIQKANYLADEMHQDVFIITDSQKERPPVFPISPRIRHIDIGIDFDRQYHHNLLVRGYYYFTLMHLYRKKLEYWLKTLKPDIVISTLGRELDFLTQLDDGSVKIGESHIAKPYTRNLHLMEQRGFPYKQIARHWRKKQEEAVKKLDALVVLTQHDADNWKEVKKACVIPNFLPFSPEKGSSCLEKRIISIGRYSEQKGYDRLIEAWIKVNRKHPDWHIRIYGEGQDRNSLQELIEKHHIENSFSLCPPTKSIQEKYLESSIYVMSSRFEGLPMALLEAMACGVPCISFDCPYGPAEIITPEEDGILVKNGNTDELADAICRLIEDTDKRIRMGKQAQKNIQRYSREEVMKLWDELFNTLTTARP	not soluble
MSSDDYESIDTPRVASLADMNRLPTQSRHSSYSTDDDEDVTPTPSASNSAPKNTILDPLQAQFLHPNSENSDIDEPRVQLREKKKATRAQDATVSHFLEDQVPNQKFKRRSAERHSMLAGAADFASRRSPFHLSGANGSGRWTDLFSSSRFKRKQRQELNNVPSSSYSNNDYGTYAGTQSIGGFSIASNSTGESFALSGTEDEIREEFRKIMLDKGLPEADKIISNTPLDQMKMMIENSRKQDNQAKGRSPEWVVRVLGEILKTKNIPECKQDIVTVRVQLVGQGVSFLNKFAVEVHDESGRTGADLICCLYSLVLKRLRSSEVGSKYELDLIDFLQEIVRCVRTLINTHVGLVLVLRRNSPVYSLLIQTLCVLNRREQNDHEAAEIRAIRVDVVRTCYTLIFVQHDTLSTPIEMTGQQKMFMELSLIAKAESKRLNEPVSRFRPLISCIDFLESRDPKQGMYVLLMINMMINGVDRNISDDQMWTEETMWQARMRLRSEAAKDKLHKYIEKFTTSETVNSQIRDVAQNMLTEHNADLETLMGKLENVKGEYDTLDGCFELLAANSEATGTETVLLSILQLMTLTNEDMSTKRSYMKLIETAISDILLHRTPIDPQADYKFVFEVPVAEIIDKMQDEEMAKKVRQATSAKQEAVAMQGEYWKTLCDFQKEAEELRKHINDPKIPLPPPTKMNLSAPSTSAGGSSALPPITGGPPPPPGLPPITGGPPPPPPPGGLPPITGGPPPPPPPGGLPPISGGPPPPPPPPGGCPPPPPPPPPGGFKGGPPPPPPPGMFAPMAPVIPDYLPPKKVPKVDGPMRKFPWGAHTINPRDIPRESFWVGTNEEQLTSDRMFDRLRTKFATKPAANSGTLGGVLNSKKKVKTAQVIHDDKLLQKLGILQGSIKMSHSELKLAILEVNEKVLTVGFLEQLRSAMPVEKELIDKLRAVNKAQFEEMPEGEQFVTRLLQIQGLPLRLDLVLFKMRFSEVLNELKPAMSSVMEACEEVRASEGFRTFLKLVLATGNFMGGATKNYSSAYAFDMRMLTRLVDTKDVDNRHTLLHHLIEEMKRIDPRRARFALTDFHHCIESSRVNADEIRKTVQLTENNIKKLENCLKVYKIQGERDLFDEKMRPFHEKAVKEFSTVSSMCGKMKNDWESLVKYYAFNDKKYPMEEFFADIRTFSEQYSNAWKELDAEAEAKRKEAEFETQKRKQLQQSQQERKPLQERQAINRVPRTPAAMIRVSTAADKAGVLDELERATGNADFLQTLMSATNSRTPRSGLPARTRGGGRLGGGLDRQRSRHQNALGQLQDLTGCASEPVLSGQFARSRNVPQNDLQRQNMELPSSVKPTTALDRAKAFGVGLPIGQNELKVRVRRKGQPAVPVTNINGTSQISPTHKENDPTGSSSTSSGPASSNTATSSSSGTVVPSTDDLLARLNDF	not soluble
MAAKIPGVIALFDVDGTLTAPRKEATPELLDFIRELRKVVTIGVVGGSDLSKISEQLGKTVTNDYDYCFSENGLVAHKDGKSIGIQSLKLHLGDDKLKELINFTLHYIADLDIPIKRGTFIEFRNGMLNVSPIGRNCSQEERDEFERYDKVQNIRPKMVAELRERFAHLNLTFSIGGQISFDVFPKGWDKTYCLQYLEDFSEIHFFGDKTYEGGNDYEIYESPKTIGHSVTSPDDTVAKCKALFMS	soluble
MTKLNAFLDTLGEGIRQKFWDIVAAAKTDAQTNLPSDKAKELAGEVISDFEQGNLFKSHQEISAELKSKFESLDDADKAAVKNLAKVYGKQAKALVMPHLPEDCKAKTDATDDAGKAAVAGGFDTGDYLPRKKRELLFIDNLTAAFREMRSRRGF	not soluble
MIYKSIAERLRIRLNSADFTLNSLLPGEKKLAEEFAVSRMTIRKAIDLLVAWGLVVRRHGSGTYLVRKDVLHQTASLTGLVEVLKRQGKTVTSQVLIFEIMPAPPAIASQLRIQINEQIYFSRRVRFVEGKPLMLEDSYMPVKLFRNLSLQHLEGSKFEYIEQECGILIGGNYESLMPVLADRLLARQMKVAEHTPLLRITSLSYSESGEFLNYSVMFRNASEY	not soluble
